Source: the Immune Epitope Database (IEDB)

Experiments:
HLA-B*18:01 = test: IEDB peptide-MHC binding, purified MHC/competitive/radioactivity; filed as Kd, often an IC50 or EC50 that approximates it; ≥ and ≤ were set here for values at or beyond the usual limits of such assays
HLA-B*40:01 [1] = test: as above
HLA-B*40:02 = test: as above
HLA-B*44:02 = test: as above
HLA-B*44:03 = test: as above
HLA-B*45:01 = test: as above
HLA-A*02:01 [2] = test: IEDB peptide-MHC binding, purified MHC/competitive/fluorescence; ≥ and ≤ were set here for values at or beyond the usual limits of such assays; conditions: source organism: Zaire ebolavirus
HLA-A*24:02 [3] = test: as above; conditions: source organism: Zaire ebolavirus
HLA-B*15:01 [4] = test: as above; conditions: source organism: Zaire ebolavirus
HLA-A*01:01 [5] = test: IEDB peptide-MHC binding, purified MHC/competitive/fluorescence; filed as Kd, often an IC50 or EC50 that approximates it; ≥ and ≤ were set here for values at or beyond the usual limits of such assays
HLA-A*03:01 [6] = test: as above; conditions: source organism: Yersinia pestis Nepal516
HLA-B*15:01 [7] = test: as above; conditions: source organism: Yersinia pestis Nepal516
HLA-B*35:01 = test: as above
HLA-A*01:01 [8] = test: IEDB peptide-MHC binding, purified MHC/direct/fluorescence; filed as Kd, often an IC50 or EC50 that approximates it; ≥ and ≤ were set here for values at or beyond the usual limits of such assays; conditions: source organism: Influenza A virus (A/equine/New York/1/1999(H3N8))
HLA-A*02:01 [9] = test: as above; conditions: source organism: Influenza A virus (A/equine/New York/1/1999(H3N8))
HLA-A*03:01 [10] = test: as above; conditions: source organism: Influenza A virus (A/equine/New York/1/1999(H3N8))
HLA-A*11:01 = test: as above; conditions: source organism: Influenza A virus (A/equine/New York/1/1999(H3N8))
HLA-A*24:02 [11] = test: as above; conditions: source organism: Influenza A virus (A/equine/New York/1/1999(H3N8))
HLA-A*31:01 = test: as above; conditions: source organism: Influenza A virus (A/equine/New York/1/1999(H3N8))
HLA-A*69:01 = test: as above; conditions: source organism: Influenza A virus (A/equine/New York/1/1999(H3N8))
HLA-B*07:02 = test: as above; conditions: source organism: Influenza A virus (A/equine/New York/1/1999(H3N8))
HLA-B*08:01 = test: as above; conditions: source organism: Influenza A virus (A/equine/New York/1/1999(H3N8))
HLA-B*15:01 [12] = test: as above; conditions: source organism: Influenza A virus (A/Puerto Rico/8/34/Mount Sinai(H1N1))
HLA-B*15:09 = test: as above; conditions: source organism: Influenza A virus(A/swine/Shandong/fNY/2003(H9N2))
HLA-B*27:05 = test: as above; conditions: source organism: Influenza A virus (A/equine/New York/1/1999(H3N8))
HLA-B*40:01 [13] = test: as above; conditions: source organism: Influenza A virus (A/equine/New York/1/1999(H3N8))
HLA-B*58:01 = test: as above
[14] = source organism: SARS coronavirus Tor2
[15] = source organism: Yersinia pestis Nepal516
[16] = source organism: Mammarenavirus juninense
[17] = source organism: Lymphocytic choriomeningitis virus (strain Armstrong)

AEWVLAYML
Kd (HLA-B*18:01; [14]): 418 nM | Kd (HLA-B*40:01 [1]; [14]): 4.75 nM | Kd (HLA-B*40:02; [14]): 4.02 nM | Kd (HLA-B*44:02; [14]): 13.9 nM | Kd (HLA-B*44:03; [14]): 5.04 nM | Kd (HLA-B*45:01; [14]): 36.5 nM

YQATGFGTN
IC50 (HLA-A*02:01 [2]): ≥ 146000 nM | IC50 (HLA-A*24:02 [3]): ≥ 231000 nM | IC50 (HLA-B*15:01 [4]): 22700 nM

PEFYEAMYT
Kd (HLA-B*18:01; [14]): ≥ 52400 nM | Kd (HLA-B*40:01 [1]; [14]): 3740 nM | Kd (HLA-B*40:02; [14]): 5050 nM | Kd (HLA-B*44:02; [14]): 17400 nM | Kd (HLA-B*44:03; [14]): 4910 nM | Kd (HLA-B*45:01; [14]): 3400 nM

CLLSHTLAY
Kd (HLA-A*01:01 [5]; [15]): 1060 nM | Kd (HLA-A*03:01 [6]): 64.3 nM | Kd (HLA-B*15:01 [7]): 225 nM | Kd (HLA-B*35:01; [15]): 24.6 nM

EELSMMYESL
Kd (HLA-B*18:01; [16]): 1340 nM | Kd (HLA-B*40:01 [1]; [16]): 899 nM | Kd (HLA-B*40:02; [16]): 106 nM | Kd (HLA-B*44:02; [16]): 1480 nM | Kd (HLA-B*44:03; [16]): 1850 nM | Kd (HLA-B*45:01; [16]): 1900 nM

VETVSLAGSY
Kd (HLA-B*18:01; [14]): 1680 nM | Kd (HLA-B*40:01 [1]; [14]): 17700 nM | Kd (HLA-B*40:02; [14]): ≥ 70800 nM | Kd (HLA-B*44:02; [14]): 3220 nM | Kd (HLA-B*44:03; [14]): 1290 nM | Kd (HLA-B*45:01; [14]): 11700 nM

LESLWAPFGV
Kd (HLA-B*18:01; [16]): 607 nM | Kd (HLA-B*40:01 [1]; [16]): ≥ 24600 nM | Kd (HLA-B*40:02; [16]): 159 nM | Kd (HLA-B*44:02; [16]): ≥ 31800 nM | Kd (HLA-B*44:03; [16]): ≥ 56400 nM | Kd (HLA-B*45:01; [16]): 16100 nM

VAGGTSSVY
Kd (HLA-A*01:01 [8]): ≥ 20000 nM | Kd (HLA-A*02:01 [9]): ≥ 20000 nM | Kd (HLA-A*03:01 [10]): ≥ 20000 nM | Kd (HLA-A*11:01): ≥ 20000 nM | Kd (HLA-A*24:02 [11]): ≥ 20000 nM | Kd (HLA-A*31:01): ≥ 20000 nM | Kd (HLA-A*69:01): ≥ 20000 nM | Kd (HLA-B*07:02): ≥ 20000 nM | Kd (HLA-B*08:01): ≥ 20000 nM | Kd (HLA-B*15:01 [12]): 129 nM | Kd (HLA-B*15:09): ≥ 20000 nM | Kd (HLA-B*27:05): ≥ 20000 nM | Kd (HLA-B*40:01 [13]): ≥ 20000 nM | Kd (HLA-B*58:01; source organism: Influenza A virus (A/equine/New York/1/1999(H3N8))): 2890 nM | Kd (HLA-B*35:01; source organism: Influenza A virus (A/quail/Hong Kong/SF550/00(H6N1))): 10.9 nM

AEAAVKPLLA
Kd (HLA-B*18:01; [14]): ≥ 55500 nM | Kd (HLA-B*40:01 [1]; [14]): 164 nM | Kd (HLA-B*40:02; [14]): ≥ 20100 nM | Kd (HLA-B*44:02; [14]): 105 nM | Kd (HLA-B*44:03; [14]): 35.6 nM | Kd (HLA-B*45:01; [14]): 10.6 nM

IEVALRTLL
Kd (HLA-B*18:01; [17]): 77.2 nM | Kd (HLA-B*40:01 [1]; [17]): 64.4 nM | Kd (HLA-B*40:02; [17]): 54.9 nM | Kd (HLA-B*44:02; [17]): 14600 nM | Kd (HLA-B*44:03; [17]): 3730 nM | Kd (HLA-B*45:01; [17]): 18300 nM

HSNASTLLY
Kd (HLA-A*01:01 [5]; source organism: Staphylococcus aureus subsp. aureus N315): 2.5 nM

AEYKLQQGTF
Kd (HLA-B*18:01; [14]): 7040 nM | Kd (HLA-B*40:01 [1]; [14]): 4580 nM | Kd (HLA-B*40:02; [14]): 20 nM | Kd (HLA-B*44:02; [14]): 28.8 nM | Kd (HLA-B*44:03; [14]): 89.6 nM | Kd (HLA-B*45:01; [14]): 62.3 nM

WASRELERF
Kd (HLA-B*58:01; source organism: Human immunodeficiency virus type 1 BH10): 27.5 nM | Kd (HLA-B*35:01; source organism: Human immunodeficiency virus 1): 56.8 nM
